Assay: label from the status in PepcDB records

Sequence | protein production
MALSIIENGKKLESTIDFSNFLKEFKKYRLRVLLVVLAITLAAFPLINGMTPQYTATATIVLKAKTDNSTPIDQVEDFDATQAEYYPTQAELLQSKTVIEAAAKKLDLINSPIFEDEDKDENIPQSEEEHLYSIVKAIKKKLSISPVRFSQLVHVSYESKDSDMSALVANAVVESYIEQQEQRKIEKTQQAQQWNNTRMSELKEKIKQQKADIDKFLSDNGLLTYQGVDGFETEQLALVNDRLATAKEKRITAKANYNTISEALGYPLEDVATLPSISNHAQLQDLRIALIQAKRTLFDLQKMYGPKNRQILEANAQIKAIELQTTALLKELKTGLYKEYQAAIERENKYRALLAEQKKDFTALAAKKDTYNTMKADLDKTQELYEKIFLRSKEQELTVLYREPVARLLDAATPPHKPSKPNKALLLIMVCAMTIIFSLLFIIIKSALNKSINNLTQVNTRLGLQGIGELISLNYIDELALFTKNFFKNSYSAETVHAIRTTILLDDKPWPIIGLTSTESTESNELNSYLLAYSFSQDRSTLLIDLDYRKEISLTEAILMQKENEIDAKKAENSDDFETVPTSTVMGVAEALEQKHPINDCLIKIENNLTFLPRGTLTETPLITLASEELGRQLKELSKQFEQVIVNLPAMTESKDAQLIARHLSGVIYTVQAGELSANHILANIEKVKQVQTPIMGVILTDVQNDELETEEAKQQLIHQNDDILG | failed
MKRMHNPAHPGEVLREYLGELTVTNAAAKLGVSRVALSRILNGTNGISADMALRLEDALGTSAEMWAAMQFKYDLWVASQQPRPKITRLHV | failed
MSKIASEVVATTLNDWYIAIKKQKVDESIKYYSEIKKLFDEMEEDQEVLAYYSLLEERHKMLLHSSRGEPLQKHTYFTEDNQNFITKTNDKLEYNFYLFEAMYEAYNKNYDRAINLYGLAEKKLAEIPDEIEAAEFYSKVSYLYTLVKQSIVAQHYIKNAISIYKRHPDYKCKLATSTMIAAANYADMKRFEEAEQYYLEAIDIAKETKDEFLKAQLFHNLSIVYSDWNKPDKCIESLEKAIGNESWLHSIYYINSLFMMIKELFKIDEKMKAINFYNKAQERLILMENKVYEAKISILYNLYCGELKNNFNNCISNIEFLKQQNELESVDELSYIAAKRFESIGAFEEATSFFNAKIWAEQKMNQVEGIL | failed
MDINYERPDPYYLLNKIDKEEKNKNRGKLKIFFGYAAGVGKTYAMLRAAHYMKELGKDIVIGYIEPHARMDTMSLTKGLPQIPVKNIDYKGVILREFDVDKALLRKPEIILVDELAHTNAKSQRNKKRWKDIEELLDAGIDVYTTLNVQHIESLNDIVANITHVSVRETIPDKVFDDADKVELIDIEPDELLKRFTDGKIYRKEQVKRAFNNFFTKNNLYALREIALRRTADRVNFEIEIARLSKGQITVMATSDQILACIGTSPSSARIIRTAARMAESYHSKWIALYVDTGRSLGKADKETLNANFNLVELLGGELVTVHGENVADQIIRYAELRNTTKIVIGKNHKRTGTLLHFYAKDVVDKLMDSNSYIDVYMIPNSSYYRDHKNSILSKISIQHKGSVKDVLKAIIIMAITTDIAELFSYMGFKDVNVIMIFILGVIIVYMATKGQIMGIISSIAAVLVFNYRFTEPKNSFIVYDKSYLVTFPIMMIVAFIIGSLTNKVQKEAQDSNMREKRTQTLYIVSGKLLSAVGTSEVVSIGIKYISRLVNRNVICYLADTSNKLSTPFVYKKDKGAKEEIIMSKDENAAAYWTFLNGKESGCGTSTFYRAKGYYIPIKIKNKVLGVIGVSCPSGPLRPQKKAVVDTVTGQIAIALDREILSKEQEKSKVEIERERLRSNLLRSISHDLRSPLAGIKGAASTILENGELIDEKRKQELINGIYEDTEWLIRLIENLLSMTKFDEGNTKIKKDVELVEEVVSEAVQRSSKYFKNHKIKVSVPEDVIMVSMDGSLIEQVIINLLDNASKFSPKGSTIEIKVYEKKKDVVFEIIDEGQGISEDILPNIFDRFFTNGSKISDSRRGVGLGLAICKSIVEAHGGKIEAVNKGSGGAIFKFNIPKEL | failed
MVFCRGCAKEISDDAGTCPHCGAPQLIISSASANKEAPASGNWYFEVLKKYAVFTGRARRKEYWMFFLFNVLISIVIGVIGGLVGDGGILANLYSLAVLVPGIAVGVRRLHDTDRSGWWLLVPIANLVFLVQEGHAGPNRFGPSPK | failed
DSASQAEQFLKLVHADKLTVPVYAQVQQMLAQRFAQAKAPESKKAVLERYQAKANAELDRAIGWDKIKPELIKLYTTNFTESELKDLNAFYQSPLGKKVLEKMPRLTAESAQLTQAKLQGAVEPVNKLMADMDKELGVAAPAQKKK | not failed
MRNMNIYDSLLGAVHSEYDVLMLIKKSERGEVSLVRHRDSGTRYIFRHFYGNSEVYQKLLNVSCPNLPQIMEVGEKDGKTALLEEYVQGDTLSEILEGGLLTIAESKQIARQLCSALWVFHSMGVVHRDVKPDNVIIRGKEAVLIDFDASRIYKSTIQEDTQILGTTGFAAPEQYGLSQSDGRADIYALGVLLNIMLTGEHPSRKLAGGRMGRIVQRCTMVNPSKRYKNILHLLEVL | failed
MGHHHHHHSHSSFQTMDQMVSNMRNYMQKLERNFGQLSVDPNGHSFCSSSVMTYSKIGDEP | failed
MRVLVLHSHPVEESYGKALYRQTVESLQKAGHMVDGCDLYEERFDPVLSRHDRLAYHDYPENLKLVESHVERLKAAEGLVICTPIWNFGFPAILKGYFDRVWLPGVSFELVNGKVESRLRHIRKLAAVLTYGATPFRAFAAGNPPKKIVKRVLRAQINPVRPVTFLAHYDMNNCTPETRAKFLARVGGAMERF | failed
MAMVVGVAMGNIALGAETVGQINEAYKTKPMLKKPLDECSMRYKTIVDVDVHTAIISIKGNPKFAEGAVVDAGVEASICEGGFTKGQSPLTSLTQRMEKICDVTRAIIRMLL | failed
QKRPLIMIGGSSSTRTDFDDIVRSLNEQQHHPLITLTVKANQKLAFKEKRVENTNLNDALIVIFFEDSTDSTENIMTQTNGLAKAIRYLQRHQHLTTANALGYSNGGLIWSRYLAGLSSSKPLAVHDLMLIGTPFLGTDAAH | failed
MPFWLEVVINVAFSYLASVGFALTINVPHRALNLSGISGTVGWMAYWFCFRLGAGRMASNLIGAFLIGILGLVFARIKKCPVTVFNIPALVPLVPGMPAYQAVRAFVVGDYIQGQELILRVAIVTGAIGLGFLLSTMCTEAFYKIRYRHFRNTGLYFKRKK | failed
MSHVSYAEPPAQGWDIHCHTVFSDGTETPRTLVEQARKLGLHGVAIADHDTTAGWDEATEASEEIGLPLLLGTEITAVDEDVSVHMLAFQYDPSNEHISSMFANTRAARLRRTKRMVERLSQDFPITWDDVLAQVKEGERTTIGRPHIADALVAAGVYETRSDAFADAVSAKSKYYIPTPSPSTHEVIAAVKGAGGVVVAAHAGDPQRNRRLLSDEQLDAMIADGLDGLEVWHRGNPPEQRERLLTIAARHDLLVTGGSDWHGKGKPNGLGENLTDDDTVREILCRGVDLIGRVGSSHAA | not failed
MKKGTDLLKKGFAKMVKHGVVMDVTNVEQAQIAEEAGAVAVMALERVPADIRAAGGVARMSDPALIEEIMDAVSIPVMAKCRIGHTTEALVLEAIGVDMIDESEVLTQADPFFHIYKKKFNVPFVCGARNLGEAVRRIWEGAAMIRTKGEAGTGNIVEAVRHMRLMNEAIAQLQRMTDEEVYGVAKFYANRYAELAKTVREGMGLPATVLENEPIYEGFTLAEIIDGLYEVLLEVKKLGRLPVVNFAAGGVATPADAALMMQLGSDGVFVGSGIFKSENPLERARAIVEATYNYDKPDIVAEVSKNLGEAMKGIDITQISEAEKMQYRGD | not failed
MLRYILLKIDIGKEGTDMAAIQAKNGPTEKLSLFLLTWPIFLEVFLFMLMGIADTFMLSALSDDAVSGVGAANQYLHIAILVLEVIGNGAAIVVSQYLGSKRFMEASKISALAVTLNLIVGLVISTGFLLFSKHMMLAMNLQGDVLTYAQNYLSIVGGAIFLQAIINSLAAIIRVHGFTKQAMFISLGMNMIHIAGNYVLIFGKFGFPELGVQGAAISSAVSRLIALIVFFWLLYRVMEYRVKLQYYFTLSKEYIGKILKIGIPSAFEQVMYQACQIVFLYYATYLGTESLAARQYATNISMFTYLFAIAIGMGTAIIIGRLVGGGEKDEAYERLWKSVKWAIGVTLCMVALVITFRTQLMGLFTDNPYIIGLGASVLLLSVLLETGRTMNIVIINSLRAAGDAKYPVLIGAFSMVLMSLPLGYFFAFHLDMGLVGIWLAIAIDEWTRAIIMFFRWKSRAWERYALVKPEEQEENVSVQVQ | failed
MSDIIHLLPDSVANQIAAGEVIQRPASVIKELVENAIDADAQNIHVLVTDAGKTCIQIIDDGKGMSETDARLSFERHATSKIREAADLFALRTMGFRGEALASIAAVAQVELKTRLESEELGTKLVIAGSKVESQEAVSCSKGSNFSVKNLFFNVPARRKFLKANSTELSNILAEFERIALVHPEVAFSLYSNDSELFNLPVSPLRQRILAIFGKKLNQQLLNIEVNTTMVKISGYIAKPETARKKGAHQYFFVNGRYMRHPYFHKAVMEAYEQLIPVGEQVSYFIYFEVDPANIDVNIHPTKTEIKFENEQAIWQILSASVKESLGKFSAIPSIDFDTEDMPDIPAFEQNLPPAPPKIHYNSDFNPFKVSSGGSGGGSYSRPKVEWEGLYGGLTKASKMNEPQQEPEMDWENSPFEEEPMVAEEKTISAVSAASSTFSSASSTLYANESVIEKGNLHLQFKGRFILTSVKSGLMLIDQHRAHIRVLFDRYMVQIKQKQGVSQGVLFPEILQLPASEAAVLQGIMDDLSAVGFDLSDLGGGSYAINGIPSGIEGLNPVELVRNMLHTAMEKGNDVKEEIQNILALTLARAAAIVYGQVLSNEEMVSLVDSLFACPSPNYTPDGKTVLTTIKEEDIEKLFK | failed
KELIQNIIEESYTDSQFTLSVLSEKLDLSSGYLSIMFKKNFGIPFQDYLLQKRMEKAKLLLLTTELKNYEIAEQVGFEDVNYFITKFKKYYQITPKQYRE | not failed
MKRPHGYQITSLRADKYGGYYAANFVGNEILYFDVNNNVNALVKDGFSYLKSPYDVIEANNLLYVTLYSSDEIGVYDKVLGVKRKSIGNKGTKDGELLAPQYMAIDKRNYIYVSEWGNKRVSKFGLEGDFILHFGSRTSGYKGLLGPTGVTYLNENIYVADSLRNTIEVFDTSGNHLYSVFTSIEGIEGLSSDFVGNNVIVSSKDGVYKYSIAKKTITKILKADKMNSKISSSILDANNQMIVSDFNNAKVSVYKSDASLYDSLEHHHHHH | not failed
MPAFVTFGRILFAVLFIYTGATKLFAIQATADFIATKVVVPDIIAPYAKQIETATAMTTPQLLAIAVGALEIIAGLMIALNFGARFFAMLLIVYVAVATVLFYDFWNLAAPDNAKMLVDALKNLSIIGALCMIIGYGRATRPVEAAYGDV | failed
GRKYLVNFSDIYYIESVDKKTFVYLADEIYQTDLRLYQLLHDLQHDGFVQISKSCLLNINVLENIRPLFNSRMEATLLNGERVIVNRRYLPDVKEALKGIQ | failed
MNTSDRIKSTQIALDRDLREQALLLLKEVRAVDGVDALSEQFVRGLAEPGLGHSHLIVTLNDKLVGLAATDEETTELAVHPAHRRQGIGKALIDAT | failed
MEILSLGEKIKARRKELNMTLKDLAGDRITPGQISLVESGKSNPSMDLLEYLAGALNTSVEYLMESEETQAEKICVYYENTAEAYMLNDELMEAEQYLEKAMYYAENYKISYRKARTLYLYGCINMNKNELGVAQQFFLSSNVLFIKLNHYEDIINTFINLGKITLNLKAYNSSCSYFEQAERVSRDNDIGNDFLIGEIYYYMSLVYFKMNNSNKTIKYCLMAKEKFAELENKKEYARTLLILSKEYSKSGDVDNAIKYSKKALKAFKENDNMFAVADIENELGKLFYEFENIEESFIHLNKAKEIRKKTKGHEFIETLCNICENYIKLKDTENSQKVLNEIKENIDGNNVFDILKYYMLKYRISILNRSLKEAENILLRALQYAENMELEKEAAEFSVIIGKYYIDNGDDVEAAKYLNSGIEKFKKIGVLKDL | failed
